# Measured values: the RNAGym collection of RNA variant scans (doi:10.7554/elife.90254)
# B1: LINE1-mini (parent)
# chain: GGCAGAGCUCAACACAGCGUGGCAAAGUGGCUGUGGCUAGACUGCC
# Variants of: B1
# Assay: self-cleavage, relative activity (ratio to wild type); higher = more cleavage; in vitro, sequencing; the parent is a self-cleaving ribozyme
row,Variant,self-cleavage
1,GGCAGAGCUAAACACAGCGUGGCAAAGUGGCUGUGGCUUGACUGCC,0.24
2,GGGAGAGCUCAAGACAGCGUGGCAAAGUGGCUGUGGCUAGACUGCC,0.55
3,GGCAGAGCUCAGCACAGCGUGGCAAAGGGGCUGUGGCUAGACUGCC,0.01
4,GGCAGAGCUCAAUACAGCGCGGCAAAGUGGCUGUGGCUAGACUGCC,0.09
5,GGCAGAGCUAAACACAGCGUGGCAAAGUGGCUGUGGCUAGACUACC,0.07
6,GUCAGAGGUCAACACAGCGUGGCAAAGUGGCUGUGGCUAGACUGCC,0.04
7,GGCUGAGCUCAACACAGCGUGGCAAAGUGCCUGUGGCUAGACUGCC,0.21
8,GGCAGAGCUCAACACAGCGUGGCAAAGUGGCUAUGGCUAGACCGCC,0.05
9,GGCAGAGCUCAACACUGCGUGGCAAAGUUGCUGUGGCUAGACUGCC,0.39
10,GGCAGAGCUCAACUCGGCGUGGCAAAGUGGCUGUGGCUAGACUGCC,0.09
11,GGCAGAGCUCAACACAGCGUGGCAAAGUGGCUGUGGCUAGACAGGC,0.08
12,GGCAGAGCUCAACACAGCGUCGGAAAGUGGCUGUGGCUAGACUGCC,0.53
13,GGCAGAGCUCAACACAGCGUGGCAAAGUCGCUGUGGCUAGACCGCC,0.26
14,GGCGGAGCUCAACACAGCGUGGCAAAGUGGCUGUGGCUAGAGUGCC,0.02
15,GGCAGAGCUCAACACAACGUGGCCAAGUGGCUGUGGCUAGACUGCC,0.06
16,GGCAGAGCUCAACACAGGGUGGCAAAGUGGCUGUGGGUAGACUGCC,0.06
17,GGCAGAGAUCAACAUAGCGUGGCAAAGUGGCUGUGGCUAGACUGCC,0.23
18,GGCAGAGCUCAUCACGGCGUGGCAAAGUGGCUGUGGCUAGACUGCC,0.16
19,GGCAGAGCUCAACACAGCGUCGCAAAGAGGCUGUGGCUAGACUGCC,0.3

row,Variant,self-cleavage
1,GGCACAGCUCAACACAGCGUGGCAAAGUGGCUGUGGAUAGACUGCC,0.05
2,GGCAGAGCACAACACAGCGUGGCGAAGUGGCUGUGGCUAGACUGCC,0.2
3,GGCAGAGCUCAACACAGCGUGGCAAAGUGGCUGUGGAUAGAGUGCC,0.06
4,GGCGGAGCUCAACACAGCGUGGCUAAGUGGCUGUGGCUAGACUGCC,1.02
5,GGCUGAGCUCAACACAGCGUGGCAAAGAGGCUGUGGCUAGACUGCC,0.19
6,GGCAGAGCUCAACACAGCGUGGCAAAGUGGCUGUGGCGAGACUGUC,0.05
7,GGCAGAGCUCAACACGGCGUGGCAAAGUGGCUGUGGCGAGACUGCC,0.01
8,GGCAGAGCUUAACCCAGCGUGGCAAAGUGGCUGUGGCUAGACUGCC,0.05
9,GGCAGAGCUCAACAUAGCGUGGCAAAGUGGCUGUGGCUACACUGCC,0.07
10,GGCAGAGCUCCACACAGCGUGGCAAAGUGGCUGUGGCUAGACUGGC,0.02
11,GGCAGAGCUCAACACAGCGUGGCAAAUUGCCUGUGGCUAGACUGCC,1.79
12,GGCAGAGCUCAACAGAACGUGGCAAAGUGGCUGUGGCUAGACUGCC,0.05
13,GGCAGAGCUCAACCCAGCGUGGCAAAGUGGCUGUGGCUAGACUUCC,0.07
14,GGCAGAGCUCAACACAACGUGGCAACGUGGCUGUGGCUAGACUGCC,0.34
15,GGCAGAGCUCAACACAGCGUGGCAACGUGGCUGUGGCUAGACGGCC,0.12
16,GGCAGAGCUCCACACAGCGUGGCAACGUGGCUGUGGCUAGACUGCC,0.03
17,GGCAGAGCUCAACACAGCGUCGCAAAGUCGCUGUGGCUAGACUGCC,0.55
18,GGCAGAGCUCAACACAGCGUGGCGAAGUGGCUGUGGCUAUACUGCC,0.16
19,GGCAGAGCUCAACACAGCGUGGCAAAGUGGCUGUGGCUCGACUGGC,0.12

row,Variant,self-cleavage
1,GGCAGAGCUCAACACAGCGUGGCGAAGUGGAUGUGGCUAGACUGCC,0.15
2,GGCAGAGCUCAACACAGCGUAGCAAAGUGGCUGUCGCUAGACUGCC,0.19
3,GGCAGAACUCAACACAGCGUGGCAAAUUGGCUGUGGCUAGACUGCC,0.16
4,GGCGGAGCUCAACACAGCGUGGCAAAGUGGCUGUGCCUAGACUGCC,0.16
5,GGCAGAGCUCAACACAGCGUGCCAAAGUGGCUGUCGCUAGACUGCC,0.08
6,GGCAGAGCUCAACACAGCGUGGCAGAGUGGCUGUGGCUAGAUUGCC,0.26
7,GGCAGAGCUCAACACAGCGUGGCAAAGUGGCUGUGGCUAGACUGAU,0.4
8,GACAGAGCUCAACACAGCGUUGCAAAGUGGCUGUGGCUAGACUGCC,0.89
9,GGCAGAGCUCAACACAGCGUGGCAAAGUGGAUGUGGUUAGACUGCC,0.09
10,GGUAGAGCUCAACACAGCUUGGCAAAGUGGCUGUGGCUAGACUGCC,0.32
11,GGCAGAGCUUAACACAGCGUGGCAAAGUGGGUGUGGCUAGACUGCC,0.05
12,GGCAGAGCUUAACACAGCGUGGCAAAGUGGUUGUGGCUAGACUGCC,0.54
13,GGCAGAGCUAAACACAGCGUGGCAAAGUGGCUGUGGCAAGACUGCC,0.15
14,GGCAGGGCUCAACACAGCGUGGCAAUGUGGCUGUGGCUAGACUGCC,0.1
15,GGCAGAGCGCAACACAGCGUGGCAAACUGGCUGUGGCUAGACUGCC,0.08
16,GGCAGAGCUCAACACAGCGUGGCAAAGUGGCUUGGGCUAGACUGCC,0.05
17,GGCAGAGCUCAACAUAGCGUGGCAAAGUGGUUGUGGCUAGACUGCC,0.09
18,GGCAGAGCUCAACACAGCGUGGCAAAGUGGCUGGGUCUAGACUGCC,0.11
